Drawing on the Immune Epitope Database (IEDB), this text covers Kd for 11 sequences.

One test has as its target HLA-A*11:01. Briefly: IEDB peptide-MHC binding, purified MHC/competitive/radioactivity; filed as Kd, often an IC50 or EC50 that approximates it; ≥ and ≤ were set here for values at or beyond the usual limits of such assays.
The next test addresses HLA-A*02:01. The description is as above.
[1] abbreviates: source organism: Mammarenavirus brazilense.
Where [2] appears, read: source organism: Mammarenavirus choriomeningitidis.

Take LVTFLLLCGR: the Kd with HLA-A*11:01 (source organism: Mammarenavirus lassaense) was no less than 5 µM.

For the sequence KCLNIMLGK, in the test with HLA-A*11:01 (setting [1]), the Kd was determined as 0.678 µM.

In the case of AQPGLLSYV, in the test with HLA-A*02:01 (source organism: Mammarenavirus guanaritoense), the Kd was 0.161 µM.

Turning to FTNDSIISH, the Kd with HLA-A*11:01 (setting [2]) turned out to be 0.038 µM.

As for STYYVHENK, the Kd in the test with HLA-A*11:01 (setting [1]) was determined as 0.006 µM.

As to SSQRDTILK, the Kd with HLA-A*11:01 (setting [1]) was 0.0093 µM.

With TTYLGPLSCK, in the test with HLA-A*11:01 (setting [2]), the Kd came out at 0.0028 µM.

In the case of GLSQFTQTV, in the test with HLA-A*02:01 (source organism: Mammarenavirus juninense), the Kd amounted to 0.03 µM.

SSIIRSLPK: the Kd in the test with HLA-A*11:01 (source organism: Mammarenavirus whitewaterense) came to 0.0025 µM.

With SIQKNTIFK, in the test with HLA-A*11:01 (source organism: Mammarenavirus machupoense), the Kd worked out at 0.0055 µM.

Consider LVSFLLLAGR, for which, in the test with HLA-A*11:01 (setting [2]), the Kd was 0.07 µM.
